Reference: paper PMC10115415, “RNA binding induces an allosteric switch in Cyp33 to repress MLL1-mediated transcription”

Tests used:
Details in all cases: protein: recombinant; tags: AGH N-terminal after intein cleavage
Cyp33 RRM [1] = target: T1, Cyp33 RRM (human, UniProt Q9UNP9 1-114); experiment: NMR titration; NMR titrations: 20 mM KHPO4 pH 7, 40 mM KCl, 1 mM DTT, 289.15 K as printed (table S2 says 298.15 K for Kd); structures of complexes: 40 mM KCl, 20 mM KH2PO4 pH
Cyp33-K (RRM) = Cyp33-K (RRM) (human, UniProt Q9UNP9 1-114, K83A); experiment: as above
Chain of Cyp33-K (RRM) (Q9UNP9 1-114 K83A): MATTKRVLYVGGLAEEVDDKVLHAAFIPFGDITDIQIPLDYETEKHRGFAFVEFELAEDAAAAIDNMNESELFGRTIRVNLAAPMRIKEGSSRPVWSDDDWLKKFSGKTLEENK

Cyp33-RK (RRM) = Cyp33-RK (RRM) (human, UniProt Q9UNP9 1-114, R86A;K88A); experiment: as above
Chain of Cyp33-RK (RRM) (Q9UNP9 1-114 R86A/K88A): as the sequence (Q9UNP9 1-114 K83A) above, with A83K, R86A, K88A counted along it

Cyp33 RRM [2] = target: T1, Cyp33 RRM; experiment: NMR titration; weak, fast exchange; NMR titrations: 20 mM KHPO4 pH 7, 40 mM KCl, 1 mM DTT, 289.15 K as printed (table S2 says 298.15 K for Kd); structures of complexes: 40 mM KCl, 20 mM KH2PO4 pH
Cyp33 RRMΔα = Cyp33 RRMΔα (human, UniProt Q9UNP9 1-90); experiment: NMR structure and titration; single register, larger shifts than with a3; NMR titrations: 20 mM KHPO4 pH 7, 40 mM KCl, 1 mM DTT, 289.15 K as printed (table S2 says 298.15 K for Kd); structures of complexes: 40 mM KCl, 20 mM KH2PO4 pH
Chain of Cyp33 RRMΔα (Q9UNP9 1-90, stated change not applied): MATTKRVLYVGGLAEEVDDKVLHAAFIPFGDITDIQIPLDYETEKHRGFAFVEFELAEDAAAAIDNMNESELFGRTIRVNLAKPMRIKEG

Cyp33 RRM [3] = target: T1, Cyp33 RRM; experiment: NMR structure and titration; low affinity, multiple registers; NMR titrations: 20 mM KHPO4 pH 7, 40 mM KCl, 1 mM DTT, 289.15 K as printed (table S2 says 298.15 K for Kd); structures of complexes: 40 mM KCl, 20 mM KH2PO4 pH

T1 sequence (Q9UNP9 1-114): as the sequence (Q9UNP9 1-114 K83A) above, with A83K counted along it

## UAAUGU (ssRNA) [UAAUGU RNA]
Cyp33 RRM [1]
  Kd: ~300 µM
Cyp33-K (RRM)
  Kd: ~1800 µM
Cyp33-RK (RRM)
  Kd: ~2000 µM

## UAAUGUCG (ssRNA) [UAAUGUCG RNA]
Cyp33 RRM [2]
  binding result: binds
Cyp33 RRMΔα
  binding result: binds

## AAUAAA (ssRNA) [AAUAAA RNA (poly-A signal)]
Cyp33 RRM [3]
  binding result: binds
